{"source": "paper PMC4650709", "target": "Ara h 1 (peanut)", "assay": "SEC; purified Ara h 1; conditions not given", "data": [{"substance": "Ara h 1 (natural protein)", "values": [{"measurement": "stoichiometry N", "value": 3}]}]}
